These results are taken from patent US20110230643A1.

This experiment addresses Toll-like receptor 5 (TLR5), constitutively expressed on Caco-2 cells (UniProt O60602). Nature of the experiment: cell-based or functional assay.

A value given as a limit tells only on which side of the number the result lay.

UniProt O60602, sequence (O60602 21-858 limits assumed): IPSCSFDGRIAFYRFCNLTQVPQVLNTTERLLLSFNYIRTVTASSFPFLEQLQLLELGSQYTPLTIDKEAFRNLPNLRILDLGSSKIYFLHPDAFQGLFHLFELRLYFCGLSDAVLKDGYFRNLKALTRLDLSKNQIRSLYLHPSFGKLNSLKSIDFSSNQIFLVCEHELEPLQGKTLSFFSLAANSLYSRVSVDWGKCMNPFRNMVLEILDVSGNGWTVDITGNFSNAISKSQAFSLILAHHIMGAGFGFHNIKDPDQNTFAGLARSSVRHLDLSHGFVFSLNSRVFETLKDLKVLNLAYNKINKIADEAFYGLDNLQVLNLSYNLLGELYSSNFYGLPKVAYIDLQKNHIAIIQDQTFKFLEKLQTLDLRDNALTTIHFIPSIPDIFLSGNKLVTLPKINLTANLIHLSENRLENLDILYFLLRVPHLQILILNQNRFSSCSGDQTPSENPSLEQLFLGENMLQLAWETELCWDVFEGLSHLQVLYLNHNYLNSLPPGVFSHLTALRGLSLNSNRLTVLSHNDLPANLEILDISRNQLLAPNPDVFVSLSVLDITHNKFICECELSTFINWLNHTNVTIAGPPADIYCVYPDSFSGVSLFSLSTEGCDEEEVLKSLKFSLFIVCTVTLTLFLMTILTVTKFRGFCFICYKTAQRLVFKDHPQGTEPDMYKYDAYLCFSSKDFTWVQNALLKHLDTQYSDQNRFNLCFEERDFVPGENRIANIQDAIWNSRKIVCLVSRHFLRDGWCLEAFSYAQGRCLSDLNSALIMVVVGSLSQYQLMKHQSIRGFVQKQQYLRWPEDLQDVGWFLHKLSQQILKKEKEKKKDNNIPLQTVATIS

“flagellin protein FliC from Salmonella enterica J341, recombinant, with C-terminal 6-histidine tag (from UniProt P06177 1-505) (ligand)” gave a dose at which the stimulating activity (IL-8 and MCP-1 release of Caco-2 cells) reached saturation of more than 1000 ng/mL.
